Test [1] has as its target T1, his-tagged human BCMA protein (ACROBiosystems, catalog # BCA-H522y-100 ug) (human, UniProt Q02223 1-54).
T1 construct: limits of the bought construct are not otherwise stated; also called recombinant his-tagged human BCMA; not shown: his tag of the bought protein
T1 sequence: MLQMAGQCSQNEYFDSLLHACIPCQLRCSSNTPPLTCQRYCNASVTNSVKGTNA
Nature of the test: SPR (Biacore T200, 25 C), antibody captured on anti-human Fc, his-tagged human BCMA as analyte, 1:1 binding model. How it is done:
Binding kinetics of anti-BCMA antibodies with his-tagged human BCMA protein (ACROBiosystems, catalog # BCA-H522y-100 ug, UniProt Q02223-1, SEQ ID NO:92) was measured using surface plasmon resonance (SPR). Kinetic interactions between the antibodies and his-tagged BCMA proteins were measured at 25° C. using Biacore T200 surface plasmon resonance (GE Healthcare). Anti-human fragment crystallizable region (Fc region) antibody was immobilized on a CM5 sensor chip to approximately 8000 resonance units (RU) using standard N-hydroxysuccinimide/N-Ethyl-N′-(3-dimethylaminopropyl) carbodiimide hydrochloride (NHS/EDC) coupling methodology. The anti-BCMA antibody (2 μg/mL) was captured for 60 seconds at a flow rate of 10 μL/minute. The his-tagged BCMA protein was run at six different dilutions of 3.12, 6.25, 12.5, 25, 50, 100 and 200 nM, in a running buffer of 0.01 M HEPES pH 7.4, 0.15 M NaCl, 3 mM EDTA, 0.05% v/v Surfactant P20 (HBS-EP+). The 25 nM BCMA protein run was measured two times. All measurements were conducted in HBS-EP+ buffer with a flow rate of 30 μL/minute. A 1:1 (Langmuir) binding model was used to fit the data. The SPR sensorgrams of anti-BCMA antibodies BCA7, GSK J6M0, BC4C9 and BC5C4 are shown in FIGS. 1, 2, 3 and 4, respectively, and their corresponding binding kinetics are listed in Table 3.

Test [2] addresses T2, his-tagged mouse BCMA protein (ACROBiosystems, catalog # BCA-M52H3) (mouse, UniProt O88472 1-49).
T2 construct: Bought protein; not shown: his tag
T2 chain (looked up): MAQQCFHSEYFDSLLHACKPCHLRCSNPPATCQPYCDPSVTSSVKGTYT
Briefly: ELISA, his-tagged BCMA on Ni-NTA plate at 2 µg/mL, anti-human Fc HRP. How it is done:
Cross-reactivity of the anti-BCMA antibodies with his-tagged BCMA protein from human, cynomolgus or mouse, were analyzed by ELISA assay. The Ni-NTA plate was coated with his-tagged BCMA proteins (listed in Example 2 above) at 2 μg/mL, then reacted with an anti-BCMA antibody at 20 μg/mL, and reacted with anti-human Fc HRP (KPL Scientific, catalog #5220-0279) at 1:2500 dilution. […] Each set includes 5 test antigens or buffer, from left to right: negative control antigen, his-tagged mouse BCMA protein, his-tagged cynomolgus BCMA protein, his-tagged human BCMA protein, and Dulbecco's Phosphate-Buffered Saline.

The target in test [3] is T3, Mutant-1 human BCMA protein-mouse Fc (human).
T3 construct: also called mutant-1 human BCMA-mouse Fc (17G-18G); mutant-1 BCMA protein
T3 chain: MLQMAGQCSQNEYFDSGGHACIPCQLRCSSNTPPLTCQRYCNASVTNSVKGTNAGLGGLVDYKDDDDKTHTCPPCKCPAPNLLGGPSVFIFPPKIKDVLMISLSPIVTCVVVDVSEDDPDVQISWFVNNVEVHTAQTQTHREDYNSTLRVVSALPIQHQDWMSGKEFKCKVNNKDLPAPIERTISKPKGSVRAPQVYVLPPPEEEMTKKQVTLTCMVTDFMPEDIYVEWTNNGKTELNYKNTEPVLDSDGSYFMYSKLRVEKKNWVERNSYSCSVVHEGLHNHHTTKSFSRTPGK
Briefly: bio-layer interferometry, antibody (100 nM) loaded on AR2G sensor, BCMA-mouse Fc in solution. How it is done:
(§1) The results of the protein-protein binding assays described in Example 8 were used to design an epitope mapping assay using bio-layer interferometry. Various anti-BCMA antibodies (2C5, 2E1, 4C9, 6G8, Bluebird C11D5, GSK J6M0, or isotype control) (100 nM) were loaded onto AR2G sensors and reacted with buffer or one of three types of human BCMA proteins including: including: wild type human BCMA-mouse Fc (SEQ ID NO:5), mutant-1 human BCMA-mouse Fc (double mutation 17G-18G; SEQ ID NO:6), or mutant-2 human BCMA-mouse Fc (mutation del32-35G; SEQ ID NO:7).

Test [4] addresses T4, Wild type human BCMA protein-mouse Fc (human).
T4 construct: also called wild type human BCMA-mouse Fc; wild type BCMA protein
T4 chain: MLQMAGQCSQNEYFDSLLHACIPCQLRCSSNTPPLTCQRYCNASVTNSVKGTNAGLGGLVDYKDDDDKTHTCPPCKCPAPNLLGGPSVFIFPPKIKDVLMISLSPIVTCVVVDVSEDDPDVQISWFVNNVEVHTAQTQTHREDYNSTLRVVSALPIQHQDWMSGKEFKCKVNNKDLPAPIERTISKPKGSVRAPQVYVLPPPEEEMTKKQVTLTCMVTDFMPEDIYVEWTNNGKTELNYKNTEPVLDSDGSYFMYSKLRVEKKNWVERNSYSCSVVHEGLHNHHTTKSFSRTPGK
The test is described as above. The protocol:
as §1

B1: GSK J6M0 antibody (GSK anti-BCMA Ab) (antibody, V domains shown)
VH: QVQLVQSGAEVKKPGSSVKVSCKASGGTFSNYWMHWVRQAPGQGLEWMGATYRGHSDTYYNQKFKGRVTITADKSTSTAYMELSSLRSEDTAVYYCARGAIYDGYDVLDNWGQGTLVTVSS
VL: DIQMTQSPSSLSASVGDRVTITCSASQDISNYLNWYQQKPGKAPKLLIYYTSNLHSGVPSRFSGSGSGTDFTLTISSLQPEDFATYYCQQYRKLPWTFGQGTKLEIK
notes: Comparator anti-BCMA antibody; captured by anti-human Fc in SPR, so it carries a human Fc; also called GSK antibody
Regarding B1, in test [1], the affinity, expressed as Kd, was 2.52 nM; the koff amounted to 0.000496 s⁻¹; the kon was 197000 M⁻¹ s⁻¹. Moreover, the binding result in test [2] is “no binding (tested: 20 µg/mL)”. For the same molecule, the binding result in test [3] was “binds”. Further, the binding result in test [4] was “binds”.

The values are drawn from patent US20210388097A1 (SORRENTO THERAPEUTICS, published 2021).
